Changes are numbered by the printed parent chain.

T1: Full-length Cyno 4-1BB (cynomolgus monkey, UniProt Q07011 24-255 (human entry))
T1 construct: on Jurkat or CHO cells; also called FOB006; cynomolgus 4-1BB
T1 chain: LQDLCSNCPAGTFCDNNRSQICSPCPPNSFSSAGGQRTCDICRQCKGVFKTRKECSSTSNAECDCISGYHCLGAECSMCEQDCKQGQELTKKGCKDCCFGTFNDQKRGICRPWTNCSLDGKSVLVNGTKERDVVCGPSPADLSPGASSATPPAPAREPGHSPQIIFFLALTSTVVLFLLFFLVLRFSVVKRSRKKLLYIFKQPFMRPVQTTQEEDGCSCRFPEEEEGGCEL

T2: Full-length Cyno OX40 (cynomolgus monkey, UniProt P43489 29-277 (human entry))
T2 construct: on CHO-K1SV cells; also called OXF004; cynomolgus OX40
T2 chain: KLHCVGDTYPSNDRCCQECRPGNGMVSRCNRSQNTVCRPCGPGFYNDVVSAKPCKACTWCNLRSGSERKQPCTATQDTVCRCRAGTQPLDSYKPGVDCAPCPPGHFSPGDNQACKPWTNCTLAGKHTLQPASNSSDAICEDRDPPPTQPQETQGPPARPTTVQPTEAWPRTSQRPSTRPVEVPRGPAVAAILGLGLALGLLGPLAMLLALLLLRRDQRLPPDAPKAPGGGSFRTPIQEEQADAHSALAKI

T3: Cyno OX40-AFH (cynomolgus monkey)
T3 construct: entry includes the tags; also called OXF005; cyno OX40 ECD
T3 chain: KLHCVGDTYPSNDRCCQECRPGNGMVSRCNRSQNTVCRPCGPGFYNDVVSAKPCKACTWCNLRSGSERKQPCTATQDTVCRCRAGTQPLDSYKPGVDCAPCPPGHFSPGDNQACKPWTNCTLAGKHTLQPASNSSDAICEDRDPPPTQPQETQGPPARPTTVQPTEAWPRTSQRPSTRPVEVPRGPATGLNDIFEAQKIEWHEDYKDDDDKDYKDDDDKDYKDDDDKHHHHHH

T4: Cyno 4-1BB ECD-AFH (cynomolgus monkey)
T4 construct: entry includes the tags; also called FOB004; Cyno CD137 ECD-avi-flag-his
T4 chain: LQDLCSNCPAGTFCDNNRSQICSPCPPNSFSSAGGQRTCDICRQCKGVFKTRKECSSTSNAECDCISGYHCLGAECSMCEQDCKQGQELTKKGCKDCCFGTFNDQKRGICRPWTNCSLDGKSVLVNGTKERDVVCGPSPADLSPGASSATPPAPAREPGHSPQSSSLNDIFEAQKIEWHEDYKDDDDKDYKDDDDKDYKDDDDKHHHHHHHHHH

T5: Human OX40 ECD-AFH (human)
T5 construct: ECD'; entry includes the C-terminal tags; also called OXF003; Human OX40 ECD-avi-flag-his
T5 chain: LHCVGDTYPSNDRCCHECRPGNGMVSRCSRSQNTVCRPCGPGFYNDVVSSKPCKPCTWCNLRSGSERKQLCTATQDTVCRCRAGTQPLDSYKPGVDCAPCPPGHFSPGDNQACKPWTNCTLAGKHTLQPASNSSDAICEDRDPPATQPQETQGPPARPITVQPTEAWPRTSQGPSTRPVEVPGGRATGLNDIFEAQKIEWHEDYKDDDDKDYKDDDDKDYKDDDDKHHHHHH

T6: Full-length Human OX40 (human, UniProt P43489 29-277)
T6 sequence: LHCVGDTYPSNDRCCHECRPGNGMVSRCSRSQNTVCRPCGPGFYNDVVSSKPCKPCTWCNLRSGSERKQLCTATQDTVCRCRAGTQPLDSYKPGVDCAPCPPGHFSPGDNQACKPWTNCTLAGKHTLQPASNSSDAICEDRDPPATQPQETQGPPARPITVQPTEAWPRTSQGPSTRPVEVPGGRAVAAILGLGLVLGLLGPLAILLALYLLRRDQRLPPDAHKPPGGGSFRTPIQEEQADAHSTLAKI

B1: FXX01114 (bispecific antibody)
chain: EVQLVQSGAEVKKPGASVKVSCKASGYTFTSYWMNWVRQAPGQGLEWMGNIYPSGGSTNYAQKFQGRVTMTVDTSTSTVYMELSSLRSEDTAVYYCASFSDGYYAYAMDYWGQGTLVTVSSGGGGSGGGGSGGGGSGGGGSEIVMTQSPATLSLSPGERATLSCRASQSVSSYLNWYQQKPGQAPRLLIYYASRRHTGIPARFSGSGSGTDFTLTISSLQPEDFAVYYCQQGYNLPYTFGQGTKVEIKEPKSSDKTHTCPPCPAPPAAAPSVFLFPPKPKDTLMISRTPEVTCVVVDVSHEDPEVKFNWYVDGVEVHNAKTKPREEQYNSTYRVVSVLTVLHQDWLNGKEYKCAVSNKALPAPIEKTISKAKGQPREPQVYTLPPSRDELTKNQVSLTCLVKGFYPSDIAVEWESNGQPENNYKTTPPVLDSDGSFFLYSKLTVDKSRWQQGNVFSCSVMHEALHNHYTQKSLSLSPGGGGSPSSYVLTQPPSVSVAPGQTARITCGGNNIGSKSVNWFQQKPGQAPVLVVYDDSGRPSGIPARFSGSTSGNTATLTISRVEAGDEADYYCQVWDSSSDHVVFGGGTKLTVLGGGGSGGGGSGGGGSGGGGSQVQLVESGGGVVQPGRSLRLSCAASGFTLSYYGMHWVRQAPGKGLEWVAAISHDGSDKYYADSVKGRFTISRDNSKNRLYLQMNSLRAEDTAVYYCSNDQFDPWGQGTLVTVSSR
notes: ADAPTIR anti-4-1BB x anti-OX40, pI variant
B2: FXX01116 (bispecific antibody)
chain: B1 chain with I541V, A543S
notes: as for B1
B3: FXX01120 (bispecific antibody)
chain: B1 chain with Q500K, I541V, A543S
notes: as for B1
B4: FXX01118 (bispecific antibody)
chain: B1 chain with Q500K
notes: as for B1
B5: FXX01117 (bispecific antibody)
chain: B1 chain with A543K
notes: as for B1

The first experiment concerns the target T1, Full-length Cyno 4-1BB. As to the kind of experiment: flow cytometry on Jurkat cells transfected with cynomolgus 4-1BB, goat anti-human Fc secondary antibody, MFI (Mean). The protocol:
(§1) Serial dilutions of ADAPTIR™ constructs were incubated with transfected target cells and subsequently labelled with a fluorescently-conjugated goat-a-human Fc secondary antibody. […] (See Example 25.)
Turning to B1, the “EC50 (read off the curve)” value was approximately 0.3 nM.
On the same count and under the same terms, as for B2, the figure is approximately 0.3 nM; as for B3, approximately 0.3 nM.
Still for that read-out and setting: under B4 stands approximately 0.3 nM; under B5, approximately 0.3 nM.

In a further experiment the target is T2, Full-length Cyno OX40. As to the kind of experiment: flow cytometry on CHOK1SV cells transfected with cynomolgus OX40, goat anti-human Fc secondary antibody, MFI (Mean). How it is done:
as §1
Regarding B1, the half-maximal effective concentration (EC50 (read off the curve)) is 1 to 2 nM.
Still for that read-out and setting: as for B2, the figure is 1 to 2 nM; as for B3, 1 to 2 nM; as for B4, 1 to 2 nM.
Consider B5, for which the “EC50 (read off the curve)” value lay in the range of 1 to 2 nM.

A further experiment has as its target T3, Cyno OX40-AFH. As to the kind of experiment: SPR (Biacore 8K), construct captured, monovalent ECD. The protocol: (§2) Mouse anti-human IgG (GE, BR-1008-39) at 25 μg/ml in 10 mM sodium acetate pH 5.0 was immobilized at a density of ˜10,000 response units (RU) onto each flow cell of a CM5 research-grade sensor chip (GE) by standard amine coupling chemistry. Each binding protein at approximately 100 nM in HBS-EP+ with 0.2% BSA buffer was captured in a flow cell with the immobilized anti-human IgG at a flow rate of 10 μL/min for 20 seconds, leaving one flow cell surface unmodified as the reference. Using a single-cycle kinetics mode, five different concentrations of ECD were sequentially injected through each flow cell at 30 μL/min for 300 seconds followed by a 600 second dissociation period. Regeneration was achieved by injection of 3 M MgCl₂ at a flow rate of 30 μL/min for 30 seconds followed by HBS-EP+ with 0.2% BSA buffer stabilization for 1 min.
(§3) Sensorgrams obtained from kinetic SPR measurements were analyzed by the double subtraction method. The signal from the reference flow cell was subtracted from the analyte binding response obtained from flow cells with immobilized or captured ligands. Buffer reference responses were then averaged from multiple injections. The averaged buffer reference responses were then subtracted from analyte binding responses, and the final double-referenced data were analyzed with Biacore T200 Evaluation software (2.0, GE), globally fitting data to derive kinetic parameters. All sensorgrams were fitted using a simple one-to-one binding model.
(§4) Using the BIACORE 8K SPR system, the affinity of these constructs for human and cyno 4-1BB, and human and cyno OX40 ECD, were determined using the methods described above. Monovalent binding affinity was determined by capturing the ADAPTIR™ bispecific construct on the chip and injecting monovalent ECD of the target at multiple concentrations.
Turning to B1, the Kd was less than 1 nM, the koff stood at 0.00028 s⁻¹ and the kon came to 1.1e+06 M⁻¹ s⁻¹.
The corresponding values for B2 are less than 1 nM, 0.00027 s⁻¹ and 1e+06 M⁻¹ s⁻¹.
B3 yielded a Kd of 0.2 nM, an off-rate (koff) of 0.00023 s⁻¹ and a kon of 950000 M⁻¹ s⁻¹.
Taken in the same sequence, the figures for B4 were less than 1 nM, 0.00024 s⁻¹ and 1.1e+06 M⁻¹ s⁻¹.
Molecule B5 yielded a Kd of less than 1 nM, a koff of 0.0002 s⁻¹ and a kon of 1e+06 M⁻¹ s⁻¹.

The target of the next experiment is T4, Cyno 4-1BB ECD-AFH. The experiment is described as above. How it is done: as §2, §3, §4
On to B1, for which the dissociation constant (Kd) came to 116 nM, the koff amounted to 0.0091 s⁻¹ and the kon worked out at 79000 M⁻¹ s⁻¹.
Taken in the same sequence, the figures for B2 were 81 nM, 0.0079 s⁻¹ and 98000 M⁻¹ s⁻¹.
B3 returned a dissociation constant (Kd) of 77 nM, a koff of 0.0075 s⁻¹ and a kon of 97000 M⁻¹ s⁻¹.
The corresponding values for B4 are 80 nM, 0.0077 s⁻¹ and 96000 M⁻¹ s⁻¹.
The corresponding values for B5 are 76 nM, 0.0072 s⁻¹ and 96000 M⁻¹ s⁻¹.

In a further experiment the target is T5, Human OX40 ECD-AFH. The experiment is described as above. The protocol: as §2, §3, §4
Consider B1, for which the equilibrium dissociation constant (Kd) is less than 1 nM, the koff was determined as 0.00026 s⁻¹ and the kon was found to be 1.1e+06 M⁻¹ s⁻¹.
Taken in the same sequence, the figures for B2 were less than 1 nM, 0.00044 s⁻¹ and 880000 M⁻¹ s⁻¹.
B3 registered a Kd of 0.4 nM, a koff of 0.00039 s⁻¹ and a kon of 1e+06 M⁻¹ s⁻¹.
The corresponding values for B4 are less than 1 nM, 0.00031 s⁻¹ and 840000 M⁻¹ s⁻¹.
B5 gave a dissociation constant (Kd) of less than 1 nM, a koff of 0.0003 s⁻¹ and a kon of 970000 M⁻¹ s⁻¹.

The next experiment deals with T7, Human 4-1BB ECD-AFH (human).
T7 construct: entry includes the tags; also called FOB003; HUMAN CD137 ECD-AVI-FLAG-HIS
Described as above. How it is done:
as §2, §3, §4
Regarding B1, binding was characterised by a dissociation constant (Kd) of 17 nM, the koff is 0.0045 s⁻¹ and the kon was 270000 M⁻¹ s⁻¹.
Turning to B2, the Kd was found to be 17 nM, the koff stood at 0.0046 s⁻¹ and the kon is 270000 M⁻¹ s⁻¹.
The corresponding values for B3 are 18 nM, 0.0046 s⁻¹ and 260000 M⁻¹ s⁻¹.
Taken in the same sequence, the figures for B4 were 17 nM, 0.0046 s⁻¹ and 270000 M⁻¹ s⁻¹.
The corresponding values for B5 are 17 nM, 0.0042 s⁻¹ and 250000 M⁻¹ s⁻¹.

For the next experiment, the target named is Full-length Human 4-1BB (human, UniProt Q07011 24-255). As to the kind of experiment: cell-based or functional assay.
Take B1: the “4-1BB Reporter Assay EC50” value came out at 0.018 nM and the “4-1BB Reporter Assay Max induction” value is 1.43e+06.
With B2, the “4-1BB Reporter Assay EC50” value amounted to 0.019 nM and the “4-1BB Reporter Assay Max induction” value worked out at 1.39e+06.
Taken in the same sequence, the figures for B3 were 0.015 nM and 1.38e+06.
Taken in the same sequence, the figures for B4 were 0.018 nM and 1.38e+06.
Turning to B5, the “4-1BB Reporter Assay EC50” value is 0.02 nM and the “4-1BB Reporter Assay Max induction” value was determined as 1.41e+06.

A further experiment has as its target T6, Full-length Human OX40. The experiment in a line: cell-based or functional assay.
On to B1, for which the “OX40 Reporter Assay EC50” value was 0.018 nM and the “OX40 Reporter Assay Max induction” value was found to be 6.08e+06.
Take B2: the “OX40 Reporter Assay EC50” value was determined as 0.017 nM and the “OX40 Reporter Assay Max induction” value was 5.95e+06.
For B3, the “OX40 Reporter Assay EC50” value was 0.012 nM and the “OX40 Reporter Assay Max induction” value was 6.12e+06.
Taken in the same sequence, the figures for B4 were 0.016 nM and 6.28e+06.
The corresponding values for B5 are 0.018 nM and 6.22e+06.

Values taken from US20220242962A1 (APTEVO RESEARCH AND DEVELOPMENT, published 2022).
